Test results reported in the DeepSol protein solubility set.

test: soluble on expression in E. coli; label from the status in PepcDB or PDB records

Question: For “MFFSHETILLICYNMLTLSKKISRIASEMIMKTKLIVVAGPTAVGKTALGIELAERFNGEIISGDSQQVYRQLNIGTAKATPEEQAAAVHHLIDVRDVDESYSAYDFVTEAQAAITDIVSRGKLPIIVGGTGLYLQSLLEGYHLGGKVDQNQVLAYRSELEQLSDQQLFEKIDSLGIEIKEINRRRAIRALELYRFSDNLENTETCYEPFIIGLDDERSLIYDRINTRVDKMVELGLLEEAKWLYDNFPEAQSARGIGYKELFPYFSGEQTLDEALEKLKQNTRRFAKRQLTWFRNRMTVSFYQISSPEYPENVIQDLAIFLNEEEGEKLEHHHHHH”, which “soluble on expression in E. coli” value is on record?
Answer: Its value is “soluble”.

Question: Which “soluble on expression in E. coli” value does the source give for “MFIAGYIEKPERGKDIILTEKGRISNEKFFPTLEEKRLIDQYWKNKSELRKARKKANSIIDDSTSTKAVEIDENSGDSDWKTELIDQLKKFSPGKFESFSRLLISKMGVRIDNQRGIIRSGDHSIDGFGYFQSDEFRTSRVAIQAKRFTNGSVGEPEIDKFKGVMDSFNAEYGIFITTSYFTDQAKEKAVVGNNSVTLIDGIKLASLVQKYQLRV” here?
Answer: Its value is “not soluble”.

Question: For “MFILHRSMLPCGANQMDLIQENGQPRYGRFSQLPTAIGLDRYIYKSPYGKIEKGWRKKLKYKKFKFCSIQHQHYSIGLAIADIGWAGHGFFYVYDHAKHQVQEWNAIHAFARKTCVDEQPLFNQSYFYKSPFELDIQHANGVRYLRVTKYGEILLSARIFCAGTEPLSLCSPNGINGWTYTQKKTTLGVEGYFTTKQGEMIEFNETSLASLDDTCGFLRPETAWFWLSSSFWTDHGDRIGINLASGVNESFGNENCIWINGVLHSIADVLFERQDKNHWVIRSLDHKLELHVETGWRRYESINLRMVGSQFSQWQAKLTGKILLDENKTVVLNQEYALLEQHYAKW”, which “soluble on expression in E. coli” value is on record?
Answer: Its value is “not soluble”.

Question: With “MFKKFTREDVHSRSKVKSSIQRTLKAKLVKQYPKIEDVIDELIPKKSQIELIKCEDKIQLYSVDGEVLFFQKFDELIPSLKLVHKFPEAYPTVQVDRGAIKFVLSGANIMCPGLTSAGADLPPAPGYEKGTIVVINAENKENALAIGELMMGTEEIKSVNKGHSIELIHHLGDPLWNFSVE” as the sequence, how does the “soluble on expression in E. coli” value read?
Answer: Its value is “not soluble”.

Question: Which “soluble on expression in E. coli” value does the source give for “MFKYSKDGVSVLTILDTRRAKINGLFPVKVQVVFRRKQKYYSTGKELSKEDWDRLLKAKSQLLMEVRTDIESSFSIIKQQVSELIQKGEFSFEILSIRLGRHTKEINLRTAFELKMKELEDNEQASTYLNYRSALKSLECFGGTNIPLDRITVEWLKHCERFWISNGKSYSSVSIYFRTLKCILNRAVRDGILKESSFPFGKNKYEIPEGHGRKLALTLPEIKRVMSFQDSTNELEEFRDLWFFSYLCNGINFMDLLFLQYSNIVDGEICFIRSKTSRTTKHSKEIRATITPEMWDIIHKWGNPNISPQTYIFKYAKGNEDAFEKIKLVRRIVTKCNRKLKKIAQGTGIAQLTTYTARHSFATVLKRGGAKTSYISESLGHSNLTVTENYLACFEKEERIRNARLLTNFDNKM” here?
Answer: Its value is “not soluble”.

Question: Which “soluble on expression in E. coli” value does the source give for “MFLEKDMQKNTLWFNGLSMDDVDKVGGKNASLGEMVSNLANVGVSVPNGFATTSYAFNQFLDHEGLDERIHQLLDELDVDDVEALRKTGATIRQWVLQAPFPADLEQEIRNNYEELIEGNTELSVAVRSSATAEDLPDASFAGQQETFLNVKGIDAVLEATKHVYASLFNDRAISYRVHQGFDHRGISLSAGIQRMVRSDKASSGVMFTLDTESGFDQVVFITSSWGLGEMVVQGAVNPDEFYVHKPMLEAGEHPIVKKTFGSKLIKMIYSNNQEIGKQVDIIDTSEEERNTFSLNEEEIKELAKQAMIIEKHYQRPMDIEWAKDGIDGKLYIVQARPETVCSQTEQNVIERYELNNKADVLVEG” here?
Answer: Its value is “not soluble”.

Question: Which “soluble on expression in E. coli” value does the source give for “MFLGTYTPKLDDKGRLTLPAKFRDALAGGLMVTKSQDHSLAVYPRAAFEQLARRASKAPRSNPEARAFLRNLAAGTDEQHPDSQGRITLSADHRRYASLSKDCVVIGAVDYLEIWDAQAWQNYQQIHEENFSAASDEALGDIF” here?
Answer: The value was “not soluble”.

Question: With “MFLVVGQGNPGERYARTRHNLGFMVLDRLGLSFRPRGEALVAEAEGGLFLKPLTYYNLTGRAVAPLARFYKIPPERILVVHDEMDLPLGRIRFKAGGSAAGNRGVLSIEEALGTRAFHRLRLGIGKPPDPSRGAEYVLSPFREEELPVVERVLEAAKEAVWCWVREGLPPCAGRFNGLDLSLG” as the sequence, how does the “soluble on expression in E. coli” value read?
Answer: Its value is “soluble”.

Question: For “MFNFANVYQQIAQHPQLQLWLNTLPQQLTDWQAKQHGDLDRWMRNLKKIPVGQPEVIDLKNAVAAHNHQPLAQGEQKKLEAVLKTFHPWRKGPYHLHGIHIDTEWRSDWKWDRLLPHISPLKNRLVLDVGCGNGYHMWRMLGEGAQQVFGIDPSELFLIQFEAVRKLLGDDQRVHLLPLGIEQMPELNAFDTVFSMGVLYHRRSPLDHLLQLKNQLVAGGELILETLVVEGDEHTVLVPFDRYAQMRNVYFFPSALALKVWLEKTGFVDVRIVDENITSLGEQRTTEWMTHNSLPDYVDPQDPSKTIEGYPAPRRAILIAKKP”, which “soluble on expression in E. coli” value is on record?
Answer: Its value is “not soluble”.

Question: Which “soluble on expression in E. coli” value does the source give for “MFQLSTQDIHLAAQADNKNAAITQVAAALTQAGCVTAAYVDGMLAREQQTSTYLGNGIAIPHGTTDTRDQVLNTGVQVFQFPQGIEWGADQTAYIVIGIAARSDEHLALLRQLTHVLSDDAVAARLAKTTSAEELRSLLMGEQKTAEFHFDTSLIALDVAADNLITLQALNAGRLQQIGAVDARFVSDVITREPLNLGQGIWLSDSTEGNLVSAVTISRPATAFEHKGEKVALLLTLSVADDQPLTVLNYLSELLLAQKADALLNADAAALLALLTSEYVEQSKVLSAEFVIRNEHGLHARPGTILVNTIKQFTSEITVTNLDGTGKPANGRSLMKVVALGVKKGNRLRFTASGEDAQTALDTIGEVIAAGLGEGAA” here?
Answer: The value was “not soluble”.

Question: For “MFQLSVQDIHPGQQAGNKEEAIRQVAAALVSAGNVADGYVNGMLAREQQTSTFLGNGIAIPHGTTDTRDQVLKTGVQVFQFPQGVTWGEGQTAYVAIGIAASSDEHLGLLRQLTHVLSDDAVAAQLQSATTAEELRALLMGEKQSEALKLDNETLSLDVAASDLLTLQALNAARLKEVGAVDAAFVSHVINDTPLNLGQGVWLNDSAEGNLRSAVAVSRAANAFTRDEQPVSLLVTVAMADEQPTAVLNRLSKLLLDKKAEHLLKADAATVLALLTSDDAIAEDVLSAEFVVRNEHGLHARPGTMLVNTIKQFSSDITVTNLDGSGKPANGRSLMKVVALGVKKGHRLRFTAQGEDAQQALDAIGEAIAAGLGEGA”, which “soluble on expression in E. coli” value is on record?
Answer: The value was “not soluble”.

Question: For “MFQQLSARLQEAIGRLRGRGRITEEDLKATLREIRRALMDADVNLEVARDFVERVREEALGKQVLESLTPAEVILATVYEALKEALGGEARLPVLKDRNLWFLVGLQGSGKTTTAAKLALYYKGKGRRPLLVAADTQRPAAREQLRLLGEKVGVPVLEVMDGESPESIRRRVEEKARLEARDLILVDTAGRLQIDEPLMGELARLKEVLGPDEVLLVLDAMTGQEALSVARAFDEKVGVTGLVLTKLDGDARGGAALSARHVTGKPIYFAGVSEKPEGLEPFYPERLAGRILGMGDIESILEKVKGLEEYDKIQKKMEDVMEGKGKLTLRDVYAQIIALRKMGPLSKVLQHIPGLGIMLPTPSEDQLKIGEEKIRRWLAALNSMTYKELENPNIIDKSRMRRIAEGSGLEVEEVRELLEWYNNMNRLLKMVK”, which “soluble on expression in E. coli” value is on record?
Answer: The value was “soluble”.

Question: For “MFRGATAVNLDSKGRVAIPTRYRAEILEKNQGQMVCTVDIRQSCLLLYPLDEWEKIEQKLLALSNFDPTQRRLQRVMLGHATECEMDAQGRILLSGPLRQHAKLEKGLMLVGQLNKFEIWSDVEWHTQIAEDIEIGSSTDFAADALNDFSL”, which “soluble on expression in E. coli” value is on record?
Answer: The value was “not soluble”.

Question: For “MFRNNYDGDTVTFSPTGRLFQVEYALEAIKQGSVTVGLRSNTHAVLVALKRNADELSSYQKKIIKCDEHMGLSLAGLAPDARVLSNYLRQQCNYSSLVFNRKLAVERAGHLLCDKAQKNTQSYGGRPYGVGLLIIGYDKSGAHLLEFQPSGNVTELYGTAIGARSQGAKTYLERTLDTFIKIDGNPDELIKAGVEAISQSLRDESLTVDNLSIAIVGKDTPFTIYDGEAVAKYI”, which “soluble on expression in E. coli” value is on record?
Answer: Its value is “soluble”.

Question: For “MFRVITRGAHTAASRQALIEKIIRVDHAGELGADRIYAGQLAVLQGSSVGSVIKKMWDEEKEHLDTMERLAAKHNVPHTVFSPVFSVAAYALGVGSALLGKEGAMACTIAVEELIGQHYNDQLKELLADDPETHKELLKILTRLRDEELHHHDTGVEHDGMKAPAYSALKWIIQTGCKGAIAIAEKI”, which “soluble on expression in E. coli” value is on record?
Answer: The value was “not soluble”.

Question: Which “soluble on expression in E. coli” value does the source give for “MFSGIKGPNPSDLKGPELRILIVHARWNLQAIEPLVKGAVETMIEKHDVKLENIDIESVPGSWELPQGIRASIARNTYDAVIGIGVLIKGSTMHFEYISEAVVHGLMRVGLDSGVPVIFGLLTVLNEEQALYRAGLNGGHNHGNDWGSAAVEMGLKALY” here?
Answer: Its value is “soluble”.

Question: For “MFSQNPYESHVDVAVSAASANLRNMTNEQLISLLDDDALLESIIVNLPQVRSMPTDKESALAANKSLAEWNLAQKPRIDAAKTQTVDLYDQVKKLQGEVAVLKSQLDSVSSSKSLDTTSSLMQVAAQEADDDAEALFTQFENGEISVEIFLKQFKDKKTIAHLRKIKSDRLAALLREQTYSSYAQPTVPPPMPHAQPGYPTGNHMPGIGNIQFGSGYSGYPNISQPSAGRHPFF”, which “soluble on expression in E. coli” value is on record?
Answer: The value was “not soluble”.

Question: Which “soluble on expression in E. coli” value does the source give for “MFSRVRVSAPSHVHAGNYDIEGSIGRLYGTVGLALGEPRLTLEASPSHSVEVEGGSRRREAEDLARLYLDKVGSRGCRLEGVKIRIYEEIPAHVGLGSTTALALSIGSSIYRICGLEPLDLRELAVTAGRSLVSALGLYSFEQGGLIVDGGFVRGERRPPPLVFRAHVPGSVKVVVALPERPIAKILDIKRREDELLARMPPMDPSMAGWASRVVLLGIMANAAEGRWGEAARWMGEFNRRLGEYWAGEQGGIYCCSEVEEIVRAMVDAGAWSGLQSSWGPTVYGLTPARRAASVLEAARRAVERVGGGKVWVTSVDNVGAVISSF” here?
Answer: Its value is “not soluble”.

Question: Which “soluble on expression in E. coli” value does the source give for “MFSTVFVAGYGNSTEGHWQNSWCKITKNSYWVEQEDWNNPNCVDWIESLNALVQSIDGPILLVSHSLGGSTIVEWSKKYSANIIGAFMVAVPDVQCEHFPKEISGYQLPPLEKLPFPSMLLASTNDPYSTLDRSKYFVDIWGSDLTIVGDLKHVNADSNIGEWSYGLNLLNKFITSIDS” here?
Answer: The value was “not soluble”.

Question: With “MFTATEAVPVAKVVAGNKRYPGVVALDNVNFTLNKGEVRALLGKNGAGKSTLIRMLTGSERPDSGDIWIGETRLEGDEATLTRRAAELGVRAVYQELSLVEGLTVAENLCLGQWPRRNGMIDYLQMAQDAQRCLQALGVDVSPEQLVSTLSPAQKQLVEIARVMKGEPRVVILDEPTSSLASAEVELVISAVKKMSALGVAVIYVSHRMEEIRRIASCATVMRDGQVAGDVMLENTSTHHIVSLMLGRDHVDIAPVAPQEIVDQAVLEVRALRHKPKLEDISFTLRRGEVLGIAGLLGAGRSELLKAIVGLEEYEQGEIVINGEKITRPDYGDMLKRGIGYTPENRKEAGIIPWLGVDENTVLTNRQKISANGVLQWSTIRRLTEEVMQRMTVKAASSETPIGTLSGGNQQKVVIGRWVYAASQILLLDEPTRGVDIEAKQQIYRIVRELAAEGKSVVFISSEVEELPLVCDRILLLQHGTFSQEFHAPVNVDELMSAILSVH” as the sequence, how does the “soluble on expression in E. coli” value read?
Answer: The value was “soluble”.

Question: Which “soluble on expression in E. coli” value does the source give for “MFTESPSRAISSYQRVGVESGVVSADPHKLILMLFEGARQALDCSLLYIQQNRIAAKGEMISKAIMIIDHGLKASLDKTAGGELANRLEQLYDYMTARLLTANLQNDAVIIEEISCLLGELHEAWASIGNQPAGKTDVQTATRNTIEDTAGTGAMA” here?
Answer: Its value is “not soluble”.

Question: Which “soluble on expression in E. coli” value does the source give for “MFVGPSPPHTPLVNRRNINNHRPRNATVTSALPDIFLAAVSLLFLWSSPKPLVSLPPNRFSFPLNPRRRSITAMSRRSPPPPPPTQRFANPQSLSDWLESRLPSDSFAAWGVKPGTKNVHNLWLELSDGETSLADSTPPVRTVNVVTVRVIGKNGRILVEAHQELSDGSIRERFRPLSEKMKPEESPDEAVFRAIKEELGSIFNGDGDNIGQRIKILPGTYNRRVEERNSLSYPGLPARYALHSVNATVEGLPEQDFCTEEKEYEGGDSTKDSVETLAAGNAVTVKRHYWKWVSPDSIRS” here?
Answer: The value was “not soluble”.
